*1 amine or outer side, *2 acyl side, *3 side chain or, on linkers, in order; H or OH if unused. Bridges are numbered along the chain shown (N, C = ends). Where no end group is shown, it is not given here. Side-chain parts run from the residue outwards. [ ]: non-standard residue; d: D form. The star is where a group is joined. C20 diacid = O=C(O)CCCCCCCCCCCCCCCCCCC(=O)*; γGlu = O=C(O)[C@H](CCC(=O)[*:2])N[*:1]; AEEA = NCCOCCOCC(=O)O; Aib = CC(C)(N)C(=O)O
T1: human GIP receptor (human, UniProt P48546 22-466)
T1 sequence (looked up): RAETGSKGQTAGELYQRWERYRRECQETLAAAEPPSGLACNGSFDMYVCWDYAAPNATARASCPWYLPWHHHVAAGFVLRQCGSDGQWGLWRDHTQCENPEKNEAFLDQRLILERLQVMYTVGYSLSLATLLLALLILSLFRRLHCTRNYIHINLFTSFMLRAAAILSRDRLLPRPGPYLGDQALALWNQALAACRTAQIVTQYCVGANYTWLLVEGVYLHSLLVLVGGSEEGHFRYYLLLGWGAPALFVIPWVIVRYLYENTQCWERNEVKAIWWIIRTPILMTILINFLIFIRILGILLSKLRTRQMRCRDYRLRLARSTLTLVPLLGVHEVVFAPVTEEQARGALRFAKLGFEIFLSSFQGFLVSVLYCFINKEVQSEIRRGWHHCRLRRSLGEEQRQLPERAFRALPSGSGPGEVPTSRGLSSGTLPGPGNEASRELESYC

B1: triple agonist of SEQ ID NO: 6 (peptide)
peptide: H[Aib]HGTFTSDYSK([AEEA-AEEA-γGlu-C20 diacid])YLDEKAAKDFVQWLLDQHPSSGQPPPS-NH2
modifications: lactam 16-20; N-terminus assumed
SMILES: CC(C)C[C@H](NC(=O)[C@H](Cc1ccc(O)cc1)NC(=O)[C@H](CCCCNC(=O)COCCOCCNC(=O)COCCOCCNC(=O)CC[C@H](NC(=O)CCCCCCCCCCCCCCCCCCC(=O)O)C(=O)O)NC(=O)[C@H](CO)NC(=O)[C@H](Cc1ccc(O)cc1)NC(=O)[C@H](CC(=O)O)NC(=O)[C@H](CO)NC(=O)[C@@H](NC(=O)[C@H](Cc1ccccc1)NC(=O)[C@@H](NC(=O)CNC(=O)[C@H](Cc1c[nH]cn1)NC(=O)C(C)(C)NC(=O)[C@@H](N)Cc1c[nH]cn1)[C@@H](C)O)[C@@H](C)O)C(=O)N[C@@H](CC(=O)O)C(=O)N[C@H]1CCC(=O)NCCCC[C@@H](C(=O)N[C@@H](CC(=O)O)C(=O)N[C@@H](Cc2ccccc2)C(=O)N[C@H](C(=O)N[C@@H](CCC(N)=O)C(=O)N[C@@H](Cc2c[nH]c3ccccc23)C(=O)N[C@@H](CC(C)C)C(=O)N[C@@H](CC(C)C)C(=O)N[C@@H](CC(=O)O)C(=O)N[C@@H](CCC(N)=O)C(=O)N[C@@H](Cc2c[nH]cn2)C(=O)N2CCC[C@H]2C(=O)N[C@@H](CO)C(=O)N[C@@H](CO)C(=O)NCC(=O)N[C@@H](CCC(N)=O)C(=O)N2CCC[C@H]2C(=O)N2CCC[C@H]2C(=O)N2CCC[C@H]2C(=O)N[C@@H](CO)C(N)=O)C(C)C)NC(=O)[C@H](C)NC(=O)[C@H](C)NC(=O)[C@H](CCCCN)NC1=O
B2: triple agonist of SEQ ID NO: 1 (peptide)
peptide: Y[Aib]QGTFTSDYSK([AEEA-AEEA-γGlu-C20 diacid])YLDEKAAKEFVQWLLDHHPSSGQPPPS-NH2
modifications: lactam 16-20; N-terminus assumed
SMILES: CC(C)C[C@H](NC(=O)[C@H](Cc1ccc(O)cc1)NC(=O)[C@H](CCCCNC(=O)COCCOCCNC(=O)COCCOCCNC(=O)CC[C@H](NC(=O)CCCCCCCCCCCCCCCCCCC(=O)O)C(=O)O)NC(=O)[C@H](CO)NC(=O)[C@H](Cc1ccc(O)cc1)NC(=O)[C@H](CC(=O)O)NC(=O)[C@H](CO)NC(=O)[C@@H](NC(=O)[C@H](Cc1ccccc1)NC(=O)[C@@H](NC(=O)CNC(=O)[C@H](CCC(N)=O)NC(=O)C(C)(C)NC(=O)[C@@H](N)Cc1ccc(O)cc1)[C@@H](C)O)[C@@H](C)O)C(=O)N[C@@H](CC(=O)O)C(=O)N[C@H]1CCC(=O)NCCCC[C@@H](C(=O)N[C@@H](CCC(=O)O)C(=O)N[C@@H](Cc2ccccc2)C(=O)N[C@H](C(=O)N[C@@H](CCC(N)=O)C(=O)N[C@@H](Cc2c[nH]c3ccccc23)C(=O)N[C@@H](CC(C)C)C(=O)N[C@@H](CC(C)C)C(=O)N[C@@H](CC(=O)O)C(=O)N[C@@H](Cc2c[nH]cn2)C(=O)N[C@@H](Cc2c[nH]cn2)C(=O)N2CCC[C@H]2C(=O)N[C@@H](CO)C(=O)N[C@@H](CO)C(=O)NCC(=O)N[C@@H](CCC(N)=O)C(=O)N2CCC[C@H]2C(=O)N2CCC[C@H]2C(=O)N2CCC[C@H]2C(=O)N[C@@H](CO)C(N)=O)C(C)C)NC(=O)[C@H](C)NC(=O)[C@H](C)NC(=O)[C@H](CCCCN)NC1=O
B3: triple agonist of SEQ ID NO: 4 (peptide)
peptide: Y[Aib]QGTFTSDYSK([AEEA-AEEA-γGlu-C20 diacid])YLDEKRAKDFVQWLLDHHPSSGQPPPS-NH2
modifications: lactam 16-20; N-terminus assumed
SMILES: CC(C)C[C@H](NC(=O)[C@H](Cc1ccc(O)cc1)NC(=O)[C@H](CCCCNC(=O)COCCOCCNC(=O)COCCOCCNC(=O)CC[C@H](NC(=O)CCCCCCCCCCCCCCCCCCC(=O)O)C(=O)O)NC(=O)[C@H](CO)NC(=O)[C@H](Cc1ccc(O)cc1)NC(=O)[C@H](CC(=O)O)NC(=O)[C@H](CO)NC(=O)[C@@H](NC(=O)[C@H](Cc1ccccc1)NC(=O)[C@@H](NC(=O)CNC(=O)[C@H](CCC(N)=O)NC(=O)C(C)(C)NC(=O)[C@@H](N)Cc1ccc(O)cc1)[C@@H](C)O)[C@@H](C)O)C(=O)N[C@@H](CC(=O)O)C(=O)N[C@H]1CCC(=O)NCCCC[C@@H](C(=O)N[C@@H](CC(=O)O)C(=O)N[C@@H](Cc2ccccc2)C(=O)N[C@H](C(=O)N[C@@H](CCC(N)=O)C(=O)N[C@@H](Cc2c[nH]c3ccccc23)C(=O)N[C@@H](CC(C)C)C(=O)N[C@@H](CC(C)C)C(=O)N[C@@H](CC(=O)O)C(=O)N[C@@H](Cc2c[nH]cn2)C(=O)N[C@@H](Cc2c[nH]cn2)C(=O)N2CCC[C@H]2C(=O)N[C@@H](CO)C(=O)N[C@@H](CO)C(=O)NCC(=O)N[C@@H](CCC(N)=O)C(=O)N2CCC[C@H]2C(=O)N2CCC[C@H]2C(=O)N2CCC[C@H]2C(=O)N[C@@H](CO)C(N)=O)C(C)C)NC(=O)[C@H](C)NC(=O)[C@H](CCCNC(=N)N)NC(=O)[C@H](CCCCN)NC1=O
B4: triple agonist of SEQ ID NO: 7 (peptide)
peptide: Y[Aib]QGTFTSDYSK([AEEA-AEEA-γGlu-C20 diacid])YLDEKRAKDFVQWLLDQHPSSGQPPPS-NH2
modifications: lactam 16-20; N-terminus assumed
SMILES: CC(C)C[C@H](NC(=O)[C@H](Cc1ccc(O)cc1)NC(=O)[C@H](CCCCNC(=O)COCCOCCNC(=O)COCCOCCNC(=O)CC[C@H](NC(=O)CCCCCCCCCCCCCCCCCCC(=O)O)C(=O)O)NC(=O)[C@H](CO)NC(=O)[C@H](Cc1ccc(O)cc1)NC(=O)[C@H](CC(=O)O)NC(=O)[C@H](CO)NC(=O)[C@@H](NC(=O)[C@H](Cc1ccccc1)NC(=O)[C@@H](NC(=O)CNC(=O)[C@H](CCC(N)=O)NC(=O)C(C)(C)NC(=O)[C@@H](N)Cc1ccc(O)cc1)[C@@H](C)O)[C@@H](C)O)C(=O)N[C@@H](CC(=O)O)C(=O)N[C@H]1CCC(=O)NCCCC[C@@H](C(=O)N[C@@H](CC(=O)O)C(=O)N[C@@H](Cc2ccccc2)C(=O)N[C@H](C(=O)N[C@@H](CCC(N)=O)C(=O)N[C@@H](Cc2c[nH]c3ccccc23)C(=O)N[C@@H](CC(C)C)C(=O)N[C@@H](CC(C)C)C(=O)N[C@@H](CC(=O)O)C(=O)N[C@@H](CCC(N)=O)C(=O)N[C@@H](Cc2c[nH]cn2)C(=O)N2CCC[C@H]2C(=O)N[C@@H](CO)C(=O)N[C@@H](CO)C(=O)NCC(=O)N[C@@H](CCC(N)=O)C(=O)N2CCC[C@H]2C(=O)N2CCC[C@H]2C(=O)N2CCC[C@H]2C(=O)N[C@@H](CO)C(N)=O)C(C)C)NC(=O)[C@H](C)NC(=O)[C@H](CCCNC(=N)N)NC(=O)[C@H](CCCCN)NC1=O
B5: triple agonist of SEQ ID NO: 5 (peptide)
peptide: Y[Aib]QGTFTSDYSK([AEEA-AEEA-γGlu-C20 diacid])ALDEKRAKEFVQWLLDQHPSSGQPPPS-NH2
modifications: lactam 16-20; N-terminus assumed
SMILES: CC(C)C[C@H](NC(=O)[C@H](C)NC(=O)[C@H](CCCCNC(=O)COCCOCCNC(=O)COCCOCCNC(=O)CC[C@H](NC(=O)CCCCCCCCCCCCCCCCCCC(=O)O)C(=O)O)NC(=O)[C@H](CO)NC(=O)[C@H](Cc1ccc(O)cc1)NC(=O)[C@H](CC(=O)O)NC(=O)[C@H](CO)NC(=O)[C@@H](NC(=O)[C@H](Cc1ccccc1)NC(=O)[C@@H](NC(=O)CNC(=O)[C@H](CCC(N)=O)NC(=O)C(C)(C)NC(=O)[C@@H](N)Cc1ccc(O)cc1)[C@@H](C)O)[C@@H](C)O)C(=O)N[C@@H](CC(=O)O)C(=O)N[C@H]1CCC(=O)NCCCC[C@@H](C(=O)N[C@@H](CCC(=O)O)C(=O)N[C@@H](Cc2ccccc2)C(=O)N[C@H](C(=O)N[C@@H](CCC(N)=O)C(=O)N[C@@H](Cc2c[nH]c3ccccc23)C(=O)N[C@@H](CC(C)C)C(=O)N[C@@H](CC(C)C)C(=O)N[C@@H](CC(=O)O)C(=O)N[C@@H](CCC(N)=O)C(=O)N[C@@H](Cc2c[nH]cn2)C(=O)N2CCC[C@H]2C(=O)N[C@@H](CO)C(=O)N[C@@H](CO)C(=O)NCC(=O)N[C@@H](CCC(N)=O)C(=O)N2CCC[C@H]2C(=O)N2CCC[C@H]2C(=O)N2CCC[C@H]2C(=O)N[C@@H](CO)C(N)=O)C(C)C)NC(=O)[C@H](C)NC(=O)[C@H](CCCNC(=N)N)NC(=O)[C@H](CCCCN)NC1=O

Columns and labels:
Experiment in all cases: cell-based or functional assay
human GIP receptor = target: T1, human GIP receptor
human GLP-1 receptor = human GLP-1 receptor (human, UniProt P43220 24-463)
human GCG receptor = human GCG receptor (human, UniProt P47871 26-477)
Chain of human GCG receptor (P47871 26-477): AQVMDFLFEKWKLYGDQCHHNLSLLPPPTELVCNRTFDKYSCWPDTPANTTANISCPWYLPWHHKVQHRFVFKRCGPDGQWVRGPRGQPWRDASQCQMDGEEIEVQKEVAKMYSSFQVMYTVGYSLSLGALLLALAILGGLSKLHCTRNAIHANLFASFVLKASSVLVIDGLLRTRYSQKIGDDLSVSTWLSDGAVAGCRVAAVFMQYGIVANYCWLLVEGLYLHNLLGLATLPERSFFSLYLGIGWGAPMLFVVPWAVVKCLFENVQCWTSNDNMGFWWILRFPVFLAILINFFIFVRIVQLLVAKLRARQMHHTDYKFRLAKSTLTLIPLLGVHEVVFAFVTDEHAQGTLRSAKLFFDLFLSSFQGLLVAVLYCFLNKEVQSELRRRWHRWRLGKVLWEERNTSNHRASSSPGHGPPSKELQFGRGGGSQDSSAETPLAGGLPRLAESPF

Binder | In vitro Activity Compared to Native Peptide (%) vs. GIP (relative titer from cAMP EC50) (human GIP receptor) | In vitro Activity Compared to Native Peptide (%) vs. GLP-1 (relative titer from cAMP EC50) (human GLP-1 receptor) | In vitro Activity Compared to Native Peptide (%) vs. Glucagon (relative titer from cAMP EC50) (human GCG receptor)
B1 | 6.11 % of human GIP | 7.94 % of human GLP-1 | 1.36 % of human GCG
B2 | 5.18 % of human GIP | 5.88 % of human GLP-1 | 0.33 % of human GCG
B3 | 3.81 % of human GIP | 3.71 % of human GLP-1 | 2.36 % of human GCG
B4 | 5.26 % of human GIP | 4.21 % of human GLP-1 | 3.32 % of human GCG
B5 | 5.29 % of human GIP | 2.36 % of human GLP-1 | 1.51 % of human GCG

From patent US20260116944A1, “NOVEL TRIPLE GLP-1/GIP/GLUCAGON RECEPTOR AGONIST AND A PHARMACEUTICAL COMPOSITION FOR PREVENTING OR TREATING OBESITY COMPRISING THE SAME” (HANMI PHARM. CO., LTD., priority 2022, published 2026)
